Assay results from patent publication US7999089, “RNA aptamers and the uses thereof” (Industry-Academic Cooperation Foundation, Dankook University).

How the values were obtained:
[1] = target: GST (UniProt P08515 P08515:1-218); experiment: EMSA; specificity control; conditions: chain copies: 2; label: 32P (radiolabelled)
[2] = target: HuR (UniProt Q15717 Q15717:1-326); experiment: EMSA; specificity control; conditions: label: 32P (radiolabelled)
[3] = target: TCF-1 (full length) (Mus musculus, UniProt Q00417 Q00417:5-388); experiment: EMSA; specificity control; conditions: tags: GST fusion, pGEX 4T-1; label: 32P (radiolabelled)
Sequence of TCF-1 (full length) (Q00417 5-388, one chain of several): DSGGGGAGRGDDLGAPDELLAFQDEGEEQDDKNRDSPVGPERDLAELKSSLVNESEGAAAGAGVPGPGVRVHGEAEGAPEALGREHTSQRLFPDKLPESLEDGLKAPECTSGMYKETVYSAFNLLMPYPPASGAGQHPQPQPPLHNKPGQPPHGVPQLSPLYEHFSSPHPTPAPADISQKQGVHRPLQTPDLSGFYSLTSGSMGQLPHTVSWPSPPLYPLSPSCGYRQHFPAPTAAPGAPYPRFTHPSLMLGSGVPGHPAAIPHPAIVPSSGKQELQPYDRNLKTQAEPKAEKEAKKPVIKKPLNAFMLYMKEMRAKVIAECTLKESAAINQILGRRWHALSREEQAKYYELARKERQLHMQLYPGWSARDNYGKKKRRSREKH

[4] = target: GST-β-catenin, full length (UniProt P35222 P35222:1-781); experiment: EMSA; stated as binding affinity for full length β-catenin; conditions: tags: GST fusion, E. coli; label: 32P (radiolabelled)
Sequence of GST-β-catenin, full length (P35222 whole entry, the tested form may be a part, one chain of several): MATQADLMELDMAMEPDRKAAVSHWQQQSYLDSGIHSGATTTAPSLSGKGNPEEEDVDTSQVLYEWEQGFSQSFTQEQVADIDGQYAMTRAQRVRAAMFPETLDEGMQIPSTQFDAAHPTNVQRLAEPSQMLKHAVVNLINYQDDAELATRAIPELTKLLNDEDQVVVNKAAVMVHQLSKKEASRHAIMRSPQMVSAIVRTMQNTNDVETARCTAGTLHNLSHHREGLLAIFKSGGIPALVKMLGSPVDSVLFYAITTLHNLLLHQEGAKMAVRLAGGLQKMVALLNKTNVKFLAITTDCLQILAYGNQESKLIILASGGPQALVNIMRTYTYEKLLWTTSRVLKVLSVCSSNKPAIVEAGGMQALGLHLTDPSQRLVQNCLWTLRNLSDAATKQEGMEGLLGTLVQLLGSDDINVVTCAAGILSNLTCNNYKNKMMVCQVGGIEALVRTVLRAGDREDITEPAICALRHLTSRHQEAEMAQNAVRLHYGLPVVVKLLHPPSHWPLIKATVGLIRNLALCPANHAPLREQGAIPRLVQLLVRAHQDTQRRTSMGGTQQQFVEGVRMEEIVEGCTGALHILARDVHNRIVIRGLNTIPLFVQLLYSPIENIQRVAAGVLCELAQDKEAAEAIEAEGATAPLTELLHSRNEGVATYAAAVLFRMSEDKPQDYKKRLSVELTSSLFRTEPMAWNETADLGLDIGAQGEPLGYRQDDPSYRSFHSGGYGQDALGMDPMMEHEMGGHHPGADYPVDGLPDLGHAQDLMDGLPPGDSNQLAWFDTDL
Method: After 8 cycles of SELEX selection, the selected sequences were digested with EcoRI and BamHI, followed by cloning into pUC19 to prepare pUC19-aptamer. To test for RNA binding, the RNA was radiolabeled as described previously (Kim & Jeong, Biochem. Biophys. Res. Commun 320:1181-1186, 2004), incubated with GST-β catenin and assayed by GST pull-down (Kim & Jeong, Biochem. Biophys. Res. Commun 320:1181-1186, 2004) or RNA-EMSA (RNA-Electrophoretic Mobility-Shift Assay) (Kim & Jeong, Biochem. Biophys. Res. Commun 320:1181-1186, 2004).

[5] = target: T1, TCF-1 C200 (HMG domain) (Mus musculus, UniProt Q00417 Q00417:188-388); experiment: competition; excess unlabelled RNA did not compete with #10; conditions: tags: GST fusion, pGEX 4T-1
T1 sequence (Q00417 188-388, one chain of several): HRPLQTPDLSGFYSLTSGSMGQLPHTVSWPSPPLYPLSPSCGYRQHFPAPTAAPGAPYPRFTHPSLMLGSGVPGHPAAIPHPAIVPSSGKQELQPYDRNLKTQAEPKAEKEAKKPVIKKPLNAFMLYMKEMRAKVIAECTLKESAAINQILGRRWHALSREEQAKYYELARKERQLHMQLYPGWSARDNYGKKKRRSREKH

[6] = target: T1, TCF-1 C200 (HMG domain); experiment: competition; excess unlabelled RNA did not compete with #10; text partly contradictory; conditions: tags: GST fusion, pGEX 4T-1
[7] = target: T1, TCF-1 C200 (HMG domain); experiment: EMSA; conditions: tags: GST fusion, pGEX 4T-1; label: 32P 5'-end

Sequence of GST (P08515 whole entry, one chain of several): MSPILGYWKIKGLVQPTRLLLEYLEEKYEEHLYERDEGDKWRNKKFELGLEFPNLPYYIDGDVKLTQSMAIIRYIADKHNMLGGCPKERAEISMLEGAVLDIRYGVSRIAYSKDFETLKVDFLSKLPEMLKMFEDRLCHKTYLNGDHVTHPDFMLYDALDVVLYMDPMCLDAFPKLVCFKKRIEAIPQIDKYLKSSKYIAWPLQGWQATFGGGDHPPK
Sequence of HuR (Q15717 whole entry, the tested form may be a part, one chain of several): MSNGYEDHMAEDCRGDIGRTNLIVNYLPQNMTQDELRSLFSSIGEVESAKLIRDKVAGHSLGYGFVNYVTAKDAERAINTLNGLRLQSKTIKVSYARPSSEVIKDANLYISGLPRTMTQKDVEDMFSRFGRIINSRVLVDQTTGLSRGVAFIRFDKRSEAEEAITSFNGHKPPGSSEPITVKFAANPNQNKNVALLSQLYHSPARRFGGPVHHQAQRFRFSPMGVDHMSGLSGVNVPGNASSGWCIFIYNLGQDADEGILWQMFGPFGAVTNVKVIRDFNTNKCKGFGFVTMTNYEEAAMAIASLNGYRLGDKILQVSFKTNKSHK

B1: β-catenin RNA aptamer (ssRNA)
RNA: GGACGCGUGGUACCAGGCCGAUCUAUGGACGCUAUAGGCACACCGGAUACUUUAACGAUUGGCUAAGCUUCCGCGGGGAUC
B1: no binding [1]; no binding [2]; no binding [3]. It also gave a Kd [4] of 5 nM.

B2: RNA #9 (ssRNA)
RNA: UGCUGACAAUUCUCGUGCCUCUCCAUGGUCUGCGGCUGAGAAGGUUCGCCAAGUUGUGGGCCGGGGUGC
B2: no binding [5].

B3: RNA #20 (ssRNA)
RNA: UUCCCGCGGUGGAAAGCGUUGGGUAGCGGCUCCGAUGGAGAGUGGUGCGCCUUGCCUGCUGGCCUUG
B3: no binding [6].

B4: TRE (TCF responsive element) (dsDNA)
DNA 1: GGTAAGATCAAAGGG
DNA 2: CCCTTTGATCTTACC
B4: binds [7].
